Measurements: patent US7579186 (Amgen, dated 2009)
Each block holds one binder with its values, some of them ahead of it.

Experiments:
[1] = biological target: T1, purified soluble recombinant human TβRII (extracellular domain of human TGF-β type II receptor, prepared in … (human, UniProt P37173 23-159)); experiment: SPR (Biacore X), soluble TβRII immobilised on the chip, antibody injected
T1 construct: The range 1-159 is as printed; also called purified human soluble TβRII; purified soluble human TβRII
Experimental: HBS buffer (containing 0.01 M HEPES, 0.15 M NaCl, 3 mM EDTA, and 0-0.005% Detergent P20, pH 7.0) was injected through a flow cell-1 attached to the kit at a flow rate of 5 μl/min. Then, 35 μl of a solution consisting of 0.005 M NHS (N-hydroxysuccinimide) and 0.2 M EDC (N-ethyl-N'-(dimethylaminopropyl)carbodiimide) was injected to activate the carboxyl groups of the CM coated on the sensor chip.
Then, 70 μl of purified soluble human TβRII (30 μg/ml; dissolved in 10 mM sodium acetate buffer (pH 5.0)) prepared in Example 2 was injected over the chip to be immobilized on the sensor chip.
Phosphate buffer was injected to the flow cell (sensor chip) at a flow rate of 20 μl/minute, and each of the purified human anti-human TGF-β type II receptor monoclonal antibody prepared in the above Example (40 to 100 μg/ml, 60 μl) was added thereto.

[2] = biological target: T2, rat TβRII expressed on the cell surface of rat kidney-derived fibroblast cell line NRK-49F (rat, UniProt P38438 24-567); experiment: flow cytometry on rat kidney-derived fibroblast cell line NRK-49F, antibody at 5 µg/ml, biotin-labeled anti-human immunoglobulin (Fc) antibody and streptavidin-PE [f]
T2 construct: whole, on cells
T2 sequence (looked up): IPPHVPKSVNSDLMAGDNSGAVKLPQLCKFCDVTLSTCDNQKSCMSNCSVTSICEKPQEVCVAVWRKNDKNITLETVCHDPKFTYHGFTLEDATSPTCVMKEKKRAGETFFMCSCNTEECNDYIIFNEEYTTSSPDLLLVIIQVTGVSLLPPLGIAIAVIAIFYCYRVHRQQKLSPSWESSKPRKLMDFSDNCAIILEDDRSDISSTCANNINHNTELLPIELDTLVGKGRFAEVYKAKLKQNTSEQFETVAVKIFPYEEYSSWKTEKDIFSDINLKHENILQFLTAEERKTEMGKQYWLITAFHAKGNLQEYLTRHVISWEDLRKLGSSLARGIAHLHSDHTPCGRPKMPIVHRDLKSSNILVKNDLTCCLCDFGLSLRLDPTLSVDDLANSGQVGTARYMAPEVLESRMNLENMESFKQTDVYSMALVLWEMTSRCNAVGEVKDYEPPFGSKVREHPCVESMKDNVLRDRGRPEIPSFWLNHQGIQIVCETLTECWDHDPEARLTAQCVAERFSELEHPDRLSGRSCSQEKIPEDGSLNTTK
Experimental: (§1) Further, similarly, the reactivity against rat TβRII of each of the various human anti-human TβRII monoclonal antibodies was analyzed by cell staining (by flow cytometry) using rat kidney-derived fibroblast cell line NRK-49F (ATCC CRL-1570) expressing rat TβRII on cell surface.
(§2) Each of the human anti-human TβRII monoclonal antibodies of the present invention or commercially available goat anti-human TβRII polyclonal antibody (R&D) (300 μl, 5 μg/ml) (diluted with phosphate buffer containing 0.1% BSA) was added to the respective cells (1 to 2 ×10^4 cells). The mixtures were incubated at 4° C. for one hour, and then centrifuged (at 1,500 rpm for three minutes). The supernatants were discarded, and the cells were washed twice with phosphate buffer. The biotin-labeled anti-human immunoglobulin (Fc) antibody (200 μl; American Qualex International Inc.) was added to the samples containing the human antibodies. The biotin-labeled anti-goat immunoglobulin antibody (200 μl; Amersham Pharmacia) was added to the samples containing the goat antibody. The samples were incubated at 4° C. for one hour.
(§3) Then, each sample was centrifuged (at 1,500 rpm for three minutes), and the supernatant was discarded. […] The samples were fluorescently analyzed with FACStar fluorescence-activated cell sorter (Becton Dickinson) (fluorescence wavelength: a DF585/42 filter, excitation wavelength: 488 nm).

[3] = biological target: T3, goat anti-human TβRII polyclonal antibody (R&D); experiment: sandwich ELISA: goat anti-human TβRII polyclonal antibody coated, soluble TβRII titrated, detection with the biotin-labeled goat anti-human TβRII polyclonal antibody and streptavidin-β-galactosidase (fluorescence)
T3 construct: Polyclonal reagent; also called anti-human soluble TβRII polyclonal antibody (R&D); commercially available anti-human TβRII polyclonal antibody
Experimental: Establishment of a Quantitative Method with Sandwich ELISA for Human Soluble TβRII <1-1> Establishment of a Sandwich ELISA System to Quantify Soluble Recombinant Human TβRII Goat anti-human TβRII polyclonal antibody (R&D) was diluted with phosphate buffer, and added to each well of a 96-well ELISA microplate (Corning) at a concentration of 0.1 μg/50 μl/well. The plate was incubated at room temperature for one hour to allow adsorption of the polyclonal antibody.
The assay sample was added to each well of the antibody-immobilized microplate (50 μl/well), and the plate was incubated at room temperature for one hour. Then, the microplate was washed three times with phosphate buffer containing 0.1% Tween20. Biotin-labeled goat anti-human TβRII polyclonal antibody (R&D) (diluted with phosphate buffer containing 1% BSA and 0.1% Tween20) was then added to each well at a concentration of 0.025 μg/50 μl/well. The plate was incubated at room temperature for one hour.
A calibration curve was prepared with the sandwich ELISA established in Example <1-1> using commercially available soluble recombinant human TβRII (R&D) as a standard.

[4] = biological target: T2, rat TβRII expressed on the cell surface …; experiment: flow cytometry on rat kidney-derived fibroblast cell line NRK-49F, antibody at 5 µg/ml, biotin-labeled anti-human immunoglobulin (Fc) antibody and streptavidin-PE [d]
Experimental: as §1, §2, §3

Kd [1]: 3.4 nM
koff [1]: 0.00012 s⁻¹
binding result [2]: binds
B1: human anti-human TβRII monoclonal antibody TR4D455 (antibody, human IgG4, V domains shown)
VH: EVQLVQSGAEVKKPGESLKISCKGSGYSFTSYWIGWVRQMPGKGLEWMGIIYPGDSDTRYSPSFQGQVTISADKSISTAYLQWSSLKASDTAMYYCARVGGCSGGSCYLWGQGNLVTVSS
VL: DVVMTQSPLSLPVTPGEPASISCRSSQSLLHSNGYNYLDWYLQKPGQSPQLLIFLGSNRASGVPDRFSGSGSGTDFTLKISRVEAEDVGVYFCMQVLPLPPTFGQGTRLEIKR
notes: Human IgG4/kappa purified from hybridoma supernatant; VH gene 5-51 (DP-73), VL gene A19 (DPK-15); The stated signal residues must be removed from the entries; also called Clone TR4D455

EC50 (read off the curve) [3]: ~2 ng/mL
B2: commercially available soluble recombinant human TβRII (R&D) (receptor, UniProt P37173 23-159, looked up)
chain: TIPPHVQKSVNNDMIVTDNNGAVKFPQLCKFCDVRFSTCDNQKSCMSNCSITSICEKPQEVCVAVWRKNDENITLETVCHDPKLPYHDFILEDAASPKCIMKEKKKPGETFFMCSCSSDECNDNIIFSEEYNTSNPD
notes: Bought product; also called standard substance

Kd [1]: 51 nM
koff [1]: 0.014 s⁻¹
binding result [4]: binds
B3: human anti-human TβRII monoclonal antibody TR4C175 (antibody, V domains shown)
VH: EVQLVESGGGLVKPGGSLRLSCAASGFTFSSFSMNWVRQAPGKGLEWVSSISSSSSYIYYTDSVKGRFTISRDNAKNSLYLQMNSLRAEDTAVYYCARGYWGFDYWGQGTLVTVSS
VL: DIQMTQSPSSLSASVGDRVTITCRASQGIRNDLGWYQQKPGKAPKRLIYAASSLQSGVPSRFSGSASGTEFTLTISSLQPEDFATYYCLQHNSNPLTFGGGTKVEIKR
notes: Human IgG4/kappa purified from hybridoma supernatant (transgenic mouse); VH gene 3-21 (DP-77), VL gene A30; The stated signal residues must be removed from the entries; also called Clone TR4C175; TRC175
